According to PMC12282130:

Molecular target: PlMYB73-nLUC (Paeonia lactiflora)

## cLUC-PlMYB70 (natural protein)
  Dual-LUC reporter in N. benthamiana leaves: activation of PlTPS1pro (LUC/REN) by PlMYB73 together with PlMYB70, against PlMYB70 alone: 3.45 fold
